# T1: ZBTB48 ZnF10-11-C (Homo sapiens, UniProt P10074 548-620)
# T1 sequence: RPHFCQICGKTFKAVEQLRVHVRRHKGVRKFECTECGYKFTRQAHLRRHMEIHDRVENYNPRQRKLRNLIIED
# B1: CIITA e.2 crystal duplex (dsDNA)
# DNA 1: CACAAGTGAGGGATCA
# DNA 2: GTGATCCCTCACTTGT
# Target: T1, ZBTB48 ZnF10-11-C
# Experiment: crystal structure
binder,measurement,value
B1,binding result,binds
